Laboratory results taken from article PMC11358003, “A bispecific antibody approach for the potential prophylactic treatment of inherited bleeding disorders” (Nature Cardiovascular Research, 2024).
“And” between values parts separate entries of the source, which are not always exact repeats. Identical values can stand only once. Like-named read-outs stand apart in the source and are kept apart here.

Assays:
[1] = target: recombinant zymogen FVII (Homo sapiens) (UniProt P08709); assay: SPR; Biacore 8K, 25 °C; FVIIa or FVII (2.5 nM) captured on immobilised anti-FVII IgG1 (CaFVII-22, against the Gla domain; CM4 chip); HMB-001 (0-4 nM) injected; 10 mM HEPES, 150 mM NaCl, 0.05% polysorbate 20, pH 7.4, 5 mM CaCl2, 1 mg/ml BSA; Langmuir 1:1 kinetics model; n = 2
[2] = target: recombinant activated coagulation factor VII (Homo sapiens) (UniProt P08709); assay: as above
[3] = target: soluble extracellular fragment of TREM-like transcript-1 (Homo sapiens (Human).) (UniProt Q86YW5); assay: SPR; Biacore 8K, 25 °C; biAb (0.5-4 nM) captured on immobilised anti-human IgG (CM4 chip); FVIIa (0-4 nM) or sTLT-1 (0-60 μM) injected; 10 mM HEPES, 150 mM NaCl, 0.05% polysorbate 20, pH 7.4, 5 mM CaCl2, 1 mg/ml BSA; Langmuir 1:1 kinetics model; n = 2
[4] = target: recombinant activated coagulation factor VII (Homo sapiens) (UniProt P08709); assay: as above
[5] = target: recombinant activated coagulation factor VII (rFVIIa, NovoSeven) (Homo sapiens) (UniProt P08709); assay: SPR; Biacore 8K, 25 °C; FVIIa or FVII (2.5 nM) captured on immobilised anti-FVII IgG1 (against the Gla domain) on a CM4 chip; HMB-001 0-4 nM injected; 10 mM HEPES, 150 mM NaCl, 0.05% polysorbate 20, pH 7.4, 5 mM CaCl2, 1 mg/ml BSA; Langmuir 1:1 kinetics; n = 2
[6] = target: recombinant zymogen FVII (Homo sapiens) (UniProt P08709); assay: as above
[7] = target: soluble extracellular fragment of TREM-like transcript-1 (Homo sapiens (Human).) (UniProt Q86YW5); assay: SPR; Biacore 8K, 25 °C; biAb (0.5-4 nM) captured on immobilised anti-human IgG (CM4 chip); FVIIa (0-4 nM) or sTLT-1 (0-60 μM) injected; 10 mM HEPES, 150 mM NaCl, 0.05% polysorbate 20, pH 7.4, 5 mM CaCl2, 1 mg/ml BSA; Langmuir 1:1 kinetics model; n = 2; remark: listed apart in the source
[8] = target: soluble extracellular fragment of TLT-1 (sTLT-1) (human) (UniProt Q86YW5); assay: SPR; Biacore 8K, 25 °C; biAb (0.5-4 nM) captured on immobilised anti-human IgG on a CM4 chip; FVIIa (0-4 nM) or sTLT-1 (0-60 μM) injected; 10 mM HEPES, 150 mM NaCl, 0.05% polysorbate 20, pH 7.4, 5 mM CaCl2, 1 mg/ml BSA; Langmuir 1:1 kinetics; n = 2
[9] = target: T1, recombinant activated coagulation factor VII (rFVIIa, NovoSeven) (Homo sapiens, UniProt P08709); assay: SPR; SPR binding assay of the monovalent control antibodies with their antigens; format not told; details: both partners purified
T1 construct: source: bought: NovoSeven, Novo Nordisk

[10] = target: T2, active site-inhibited FVIIa:soluble TF complex (FVIIai:sTF) (human | , UniProt P08709;P13726, active site inhibited with H-D-Phe-Phe-Arg-chloromethyl ketone (FFR-cmk)); assay: crystal structure; SEC-purified Fab:FVIIai:sTF complex; sitting-drop vapor diffusion at 18 °C; 0.15 M CsCl, 15% PEG 3350; four complexes in the asymmetric unit; details: both partners purified
T2 construct: as the light chain of m8: factor VIIa light chain without the N-terminal Gla domain; as the heavy chain of m8: factor VIIa heavy chain (protease domain); as m9: tissue factor, amino acids 1-219; also called FVIIa:sTF complex; source: FVIIai from CHO cells and sTF from Escherichia coli; SEC-purified together with the Fab; copies: + +

[11] = target: T3, active site-inhibited FVIIa (FVIIai), prepared from FVIIa-desGLA (Homo sapiens, active site inhibited with H-D-Phe-Phe-Arg-chloromethyl ketone (FFR-cmk)); assay: as above; details: both partners purified
T3 construct: source: CHO cells (CHO-EBNA), purified (VIISelect, desalted), then incubated with FFR-cmk
T3 chain 1: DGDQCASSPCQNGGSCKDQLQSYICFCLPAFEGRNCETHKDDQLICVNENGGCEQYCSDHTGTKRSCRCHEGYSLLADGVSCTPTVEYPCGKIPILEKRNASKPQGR
T3 chain 2: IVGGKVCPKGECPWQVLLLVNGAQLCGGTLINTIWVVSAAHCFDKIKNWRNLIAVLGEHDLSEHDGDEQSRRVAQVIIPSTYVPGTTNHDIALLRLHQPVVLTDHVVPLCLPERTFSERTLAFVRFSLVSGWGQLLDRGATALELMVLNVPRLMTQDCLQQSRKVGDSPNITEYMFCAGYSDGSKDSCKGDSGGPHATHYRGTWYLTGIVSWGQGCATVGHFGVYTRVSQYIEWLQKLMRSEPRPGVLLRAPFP

[12] = target: T4, sTLT-1 stalk peptide (37-mer TLT-1 peptide) (human); assay: crystal structure; gel-filtrated 1:1 Fab-sTLT-1 stalk peptide complex; sitting-drop vapor diffusion at 18 °C; 1 M LiCl, 0.1 M Na citrate-citric acid pH 4.0, 20% PEG 6000; two complexes in the asymmetric unit; details: both partners purified
T4 construct: TREM-like transcript-1 (TLT-1), amino acids 111-147 of mature TLT-1; numbers count on: the mature protein; Amino acids 7-21 of the peptide are seen in the crystal structure; also called synthetic stalk peptide of TLT-1; source: synthetic peptide
T4 chain: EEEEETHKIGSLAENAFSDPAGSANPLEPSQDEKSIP

[13] = target: T5, soluble extracellular fragment of TLT-1 (sTLT-1) (human, UniProt Q86YW5); assay: SPR; SPR binding assay of the monovalent control antibodies with their antigens; format not told; details: both partners purified
T5 construct: TREM-like transcript-1 (TLT-1), amino acids 1-147 of mature TLT-1 (IgV domain 1-110 and stalk 111-147); numbers count on: the mature protein; two amino acid (valine-aspartic acid) linker before the His tag, told in words; source: CHO cells (ExpiCHO), transient transfection, purified (HisTrap); not shown: His tag, C-terminal, kept

HMB-001 (bispecific antibody)
Kd [1]: 0.4 nM | koff [1]: 0.000725 s⁻¹ | kon [1]: 1.83e+06 M⁻¹ s⁻¹ and 1.82e+06 M⁻¹ s⁻¹ | Kd [2]: 0.37 nM | koff [2]: 0.000664 s⁻¹ and 0.000665 s⁻¹ and 0.000666 s⁻¹ | kon [2]: 1.8e+06 M⁻¹ s⁻¹ | Kd [3]: 2.34 nM | koff [3]: 0.000641 s⁻¹ | kon [3]: 274000 M⁻¹ s⁻¹ | Kd [4]: 0.04 nM | koff [4]: 0.000127 s⁻¹ | kon [4]: 2.9e+06 M⁻¹ s⁻¹ | Kd [5]: 0.37 nM | Kd [6]: 0.4 nM | Kd [7]: 2.33 nM and 2.35 nM | koff [7]: 0.00061 s⁻¹ and 0.000672 s⁻¹ | kon [7]: 262000 M⁻¹ s⁻¹ and 286000 M⁻¹ s⁻¹ | Kd [8]: 2.3 nM

B1: monovalent control antibody with the FVIIa-binding arm of HMB-001 (antibody, V domains shown)
VH: QVQLQESGPGLVKPSQTLSLTCTVSGYSISSDSAWSWIRQPPGKGLEWIGYIQYSGSTNYNPSLKSRVTISRDTSKNQFSLKLSSVTAADTAVYYCARSVNYYGNSFAVGYWGQGTLVTVSS
VL: EIVLTQSPATLSLSPGERATLSCRASQGISDYLHWYQQKPGEAPRLLIKYTSQPATGIPARFSGSGSGTDFTLTISSLEPEDFAVYYCQNGHSFPLTFGQGTKLEIK
notes: as the heavy chain of the anti-FVIIa arm of m1; Fab part in PDB 8CN9; constant part as in PDB 5DK3 with the DuoBody mutations (EU numbering); as the light chain of the anti-FVIIa arm of m1; light chain of the Fab in PDB 8CN9; empty Fc, E216-G446 in EU numbering; About 100 kDa; also called anti-FVIIa cAb; monovalent cAb; source: DuoBody assembly of the parental anti-FVIIa antibody with an empty …
binding result [9]: binds

B2: anti-FVIIa Fab fragment of HMB-001 (Fab, V domains shown)
VH: QVQLQESGPGLVKPSQTLSLTCTVSGYSISSDSAWSWIRQPPGKGLEWIGYIQYSGSTNYNPSLKSRVTISRDTSKNQFSLKLSSVTAADTAVYYCARSVNYYGNSFAVGYWGQGTLVTVSS
VL: EIVLTQSPATLSLSPGERATLSCRASQGISDYLHWYQQKPGEAPRLLIKYTSQPATGIPARFSGSGSGTDFTLTISSLEPEDFAVYYCQNGHSFPLTFGQGTKLEIK
notes: Fab part of the heavy chain of the anti-FVIIa arm of m1; heavy chain of the Fab in PDB 8CN9; as the light chain of the anti-FVIIa arm of m1; light chain of the Fab in PDB 8CN9; also called anti-FVII Fab of HMB-001; source: HEK293 suspension cells (293Expi), transient transfection, purified (MabSelect SuRe)
binding result [10]: binds | binding result [11]: binds

B3: anti-TLT-1 Fab fragment of HMB-001 (Fab, V domains shown)
VH: EVQLVESGGGLVQPGGSLRLSCAASGFTFSRYWMTWVRQAPGKGLVWVGEINPDSSTINYAPSVKGRFTISRDNAKNTLYLQMNSLRAEDTAVYYCASGVFTSWGQGTLVTVSS
VL: DIVMTQTPLSSPVTLGQPASISCRSSQSLVHRQGNTYFHWLQQRPGQPPRLLIYKVSNRFSGVPDRFSGSGAGTDFTLKISRVEAEDVGVYYCSQSTHVPYTFGQGTKLEIK
notes: Fab part of the heavy chain of the anti-TLT-1 arm of m1; heavy chain of the Fab in PDB 8CHE; as the light chain of the anti-TLT-1 arm of m1; light chain of the Fab in PDB 8CHE; source: CHO cells, purified (KappaSelect)
binding result [12]: binds

B4: monovalent control antibody with the TLT-1-binding arm of HMB-001 (antibody, V domains shown)
VH: EVQLVESGGGLVQPGGSLRLSCAASGFTFSRYWMTWVRQAPGKGLVWVGEINPDSSTINYAPSVKGRFTISRDNAKNTLYLQMNSLRAEDTAVYYCASGVFTSWGQGTLVTVSS
VL: DIVMTQTPLSSPVTLGQPASISCRSSQSLVHRQGNTYFHWLQQRPGQPPRLLIYKVSNRFSGVPDRFSGSGAGTDFTLKISRVEAEDVGVYYCSQSTHVPYTFGQGTKLEIK
notes: as the heavy chain of the anti-TLT-1 arm of m1 (without DuoBody mutations); Fab part in PDB 8CHE; constant part as in PDB 5DK3; as the light chain of the anti-TLT-1 arm of m1; light chain of the Fab in PDB 8CHE; empty Fc, E216-G446 in EU numbering; About 100 kDa; also called anti-TLT-1 cAb; monovalent cAb; source: DuoBody assembly of the parental anti-TLT-1 antibody with an empty Fc; purified by …
binding result [13]: binds
